For test [1], the target named is T1, human serum albumin (human, UniProt P02768 25-609).
T1 construct: mature; Bought protein; biotinylated in the Octet and HTRF assays; also called HSA; HuSA
Nature of the test: Octet biolayer interferometry, biotinylated albumin on SA sensors, pH 6.0. An outline of the steps: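 Affinity is measured against albumin captured at 1 μg/ml on streptavidin tips, in PBS-T (0.01% Tween 20) plus 1% casein at the stated pH, at 25° C.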
(In general: Biolayer interferometry detects binding as a change in optical thickness at a sensor tip.)

Test [2] has as its target T2, cynomolgus serum albumin (cynomolgus).
T2 construct: also called CSA; cyno serum albumin
Put plainly: binding ELISA on coated albumin, pH 6.0, panel 'CSA Binding at pH 6.0'. How it is done: (§1) Briefly, ELISA was performed as follow:
(§2) Human (Sigma-Aldrich); Cynomolgus and Mouse (Abcam); Equine (Abcam); Canine (Abcam); Mouse (Sigma-Aldrich); Rabbit (Sigma-Aldrich); Porcine (Sigma-Aldrich);, and Rat (Sigma-Aldrich) serum albumin were coated overnight on 96 well plates (Corning Costar) at 1 μg/ml in PBS at the appropriate pH (pH 6.0 or 7.4). Plates were saturated using 5% Casein (Sigma-Aldrich) buffer in PBS. […] Plates were then washed and AFFIMER® proteins were detected using a biotinylated polyclonal antibody anti-Cystatin (R&D System) for 90 minutes. After washing, streptavidin-HRP (Thermo Fisher Scientific) was added and incubated for 30 minutes.

Test [3] concerns the target T2, cynomolgus serum albumin. Nature of the test: Octet biolayer interferometry, pH 7.4. The protocol: (§3) Biotinylated antigen was captured onto SA sensors at 1 μg/ml for 600 seconds in a buffer comprising PBS-T (0.01% Tween 20)+1% casein at either pH 6.0 or 7.4. Association was carried out for 300 seconds and dissociation for 600 seconds, and regeneration was performed using 10 mM glycine pH 1.5 (GE Healthcare) for 3×5 seconds. All steps were carried out at 1000 rpm and 25° C. Purified AFFIMER® polypeptide in two-fold serial dilutions was analyzed at a starting concentration of approximately 10× K_{D value}. Kinetics analyses were carried out using the Octet data analysis software, subtracting the reference sensor (loaded with antigen), aligning the Y-axis to baseline, and using inter-step correction to align association to dissociation. Savitzky-Golay filtering was applied and the data processed. Analysis of the data was carried out with a 1:1 model, global fit, Rₘₐₓ unlinked by sensor.
(§4) AFFIMER® polypeptides were incubated with AcTEV for 1 hour at 30° C. as recommend by the manufacturer (Invitrogen) and removal of cleaved His tag by binding NiNTA resin (Generon) and collecting the cleaved protein flow through. […] Pharmacokinetic profile of IV-injected His tag cleaved AFFIMER® protein compared to C-terminally His-tagged AFFIMER® protein was evaluated.

Test [4] has as its target T1, human serum albumin. Put plainly: Octet biolayer interferometry, pH 7.4. How it is done: as §3, §4
For test [5], the target named is T3, mouse serum albumin (mouse, UniProt P07724 25-608).
T3 construct: also called MSA
T3 sequence (P07724 25-608 limits assumed): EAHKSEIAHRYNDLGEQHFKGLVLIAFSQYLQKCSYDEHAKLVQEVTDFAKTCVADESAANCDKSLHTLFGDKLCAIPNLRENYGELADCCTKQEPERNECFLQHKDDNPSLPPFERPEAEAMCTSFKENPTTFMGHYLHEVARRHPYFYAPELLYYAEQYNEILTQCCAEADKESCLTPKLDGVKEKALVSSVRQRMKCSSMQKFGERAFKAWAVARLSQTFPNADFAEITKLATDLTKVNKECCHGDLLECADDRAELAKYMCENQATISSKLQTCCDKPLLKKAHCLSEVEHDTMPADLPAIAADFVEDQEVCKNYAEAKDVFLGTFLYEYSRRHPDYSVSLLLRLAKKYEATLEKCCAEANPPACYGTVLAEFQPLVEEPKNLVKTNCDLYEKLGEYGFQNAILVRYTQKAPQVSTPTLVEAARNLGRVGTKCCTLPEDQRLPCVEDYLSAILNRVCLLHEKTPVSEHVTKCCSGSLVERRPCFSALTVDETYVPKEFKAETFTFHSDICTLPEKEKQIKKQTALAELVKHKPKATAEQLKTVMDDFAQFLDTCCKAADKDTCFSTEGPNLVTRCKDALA
Put plainly: Octet biolayer interferometry, pH 7.4. How it is done: as §3, §4

The target of test [6] is T3, mouse serum albumin. Put plainly: binding ELISA on coated albumin, pH 6.0, panel 'MSA Binding at pH 6.0'. The protocol:
as §1, §2
(In an ELISA, binding on a coated surface is turned into a signal by an enzyme label.)

T2 sequence (A2V9Z4 25-608): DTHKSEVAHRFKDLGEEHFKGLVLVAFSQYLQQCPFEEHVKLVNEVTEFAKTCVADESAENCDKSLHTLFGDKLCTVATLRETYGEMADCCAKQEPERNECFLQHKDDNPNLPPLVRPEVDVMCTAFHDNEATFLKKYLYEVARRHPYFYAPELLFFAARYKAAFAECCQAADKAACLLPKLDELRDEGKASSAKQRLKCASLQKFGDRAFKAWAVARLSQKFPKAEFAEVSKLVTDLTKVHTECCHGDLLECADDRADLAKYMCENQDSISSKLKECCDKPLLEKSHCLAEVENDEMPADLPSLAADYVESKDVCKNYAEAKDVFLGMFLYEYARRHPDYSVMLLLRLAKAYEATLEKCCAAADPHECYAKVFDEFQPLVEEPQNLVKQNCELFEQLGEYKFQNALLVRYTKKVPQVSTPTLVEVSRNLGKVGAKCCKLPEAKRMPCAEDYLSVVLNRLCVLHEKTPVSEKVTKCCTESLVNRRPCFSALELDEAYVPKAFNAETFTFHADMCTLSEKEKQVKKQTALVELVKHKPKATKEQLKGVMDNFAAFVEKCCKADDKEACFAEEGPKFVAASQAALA

B1: HSA-41 (designed binder)
chain: MIPRGLSEAKPATPEIQEIVDKVKPQLEEKTNETYGKLEAVQYKTQVLANFFQRRWPGSTNYYIKVRAGDNKYMHLKVFNGPWKFRNTDRGADRVLTGYQVDKNKDDELTGFHHHHHH
notes: also called HSA-41 parent; HSA-41 AH parent
B1: the koff – broadly, the rate constant with which the complex falls apart – in the test with human serum albumin [1] was determined as 0.00198 s⁻¹. For the same molecule, in the test with human serum albumin [1], the on-rate (kon) (commonly the rate constant with which the complex forms) was 278000 M⁻¹ s⁻¹. For the same molecule, the entries for the “EC50 (read off the curve)” value with cynomolgus serum albumin [2] and in the test with mouse serum albumin [6] were approximately 3 nM and approximately 0.7 nM, respectively. Also, the Kd (commonly the equilibrium constant for the complex coming apart) with cynomolgus serum albumin [3] turned out to be 209 nM; with human serum albumin [4], 7.74 nM; with mouse serum albumin [5] it was 82 nM.

The values above are taken from patent US20230272011A1 (AVACTA LIFE SCIENCES, published 2023).
